Experimental data published in paper doi:10.1101/2020.07.24.212647 (bioRxiv, 2020).
Read-outs that look alike come from different tables or passages of the source.

Tests used:
[1] = biological target: Corynebacterium mustelae E2p catalytic domain (CmE2p_CD) (Corynebacterium mustelae); test: crystal structure
[2] = biological target: the molecule itself; test: crystal structure
[3] = biological target: the molecule itself; test: AUC
[4] = biological target: the molecule itself; test: AUC; remark: listed apart in the source

## Corynebacterium mustelae E2p catalytic domain (CmE2p_CD) (domain or fragment)
[1]
  stoichiometry N: 3

B1: C. glutamicum E2p catalytic core and peripheral subunit binding domain (CgE2p-ΔLBDs) (domain or fragment)
chain: YVTPLVRKLAEKHGVDLNTVTGTGIGGRIRKQDVLAAANGEAAPAEAAAPVSAWSTKSVDPEKAKLRGTTQKVNRIREITAMKTVEALQISAQLTQLHEVDMTRVAELRKKNKPAFIEKHGVNLTYLPFFVKAVVEALVSHPNVNASFNAKTKEMTYHSSVNLSIAVDTPAGLLTPVIHDAQDLSIPEIAKAIVDLADRSRNNKLKPNDLSGGTFTITNIGSEGALSDTPILVPPQAGILGTGAIVKRPVVITEDGIDSIAIRQMVFLPLTYDHQVVDGADAGRFLTTIKDRLETANFEGDLQL
[2]
  binding result: binds

B2: C. glutamicum E2p catalytic domain (CgE2p_CD) (domain or fragment)
chain: LRGTTQKVNRIREITAMKTVEALQISAQLTQLHEVDMTRVAELRKKNKPAFIEKHGVNLTYLPFFVKAVVEALVSHPNVNASFNAKTKEMTYHSSVNLSIAVDTPAGLLTPVIHDAQDLSIPEIAKAIVDLADRSRNNKLKPNDLSGGTFTITNIGSEGALSDTPILVPPQAGILGTGAIVKRPVVITEDGIDSIAIRQMVFLPLTYDHQVVDGADAGRFLTTIKDRLETANFEGDLQL
[3]
  stoichiometry N: 3

B3: M. tuberculosis E2b, full-length (MtE2b_FL) (enzyme)
chain: MSGEDSIRSFPVPDLGEGLQEVTVTCWSVAVGDDVEINQTLCSVETAKAEVEIPSPYAGRIVELGGAEGDVLKVGAELVRIDTGPTAVAQPNGEGAVPTLVGYGADTAIETSRRTSRPLAAPVVRKLAKELAVDLAALQRGSGAGGVITRADVLAAARGGVGAGPDVRPVHGVHARMAEKMTLSHKEIPTAKASVEVICAELLRLRDRFVSAAPEITPFALTLRLLVIALKHNVILNSTWVDSGEGPQVHVHRGVHLGFGAATERGLLVPVVTDAQDKNTRELASRVAELITGAREGTLTPAELRGSTFTVSNFGALGVDDGVPVINHPEAAILGLGAIKPRPVVVGGEVVARPTMTLTCVFDHRVVDGAQVAQFMCELRDLIESPETALLDL
[4]
  stoichiometry N: 24

B4: C. glutamicum E2p, full-length (CgE2p_FL) (enzyme)
chain: MAFSVEMPELGESVTEGTITQWLKSVGDTVEVDEPLLEVSTDKVDTEIPSPVAGVILEIKAEEDDTVDVGGVIAIIGDADETPANEAPADEAPAPAEEEEPVKEEPKKEAAPEAPAATGAATDVEMPELGESVTEGTITQWLKAVGDTVEVDEPLLEVSTDKVDTEIPSPVAGTIVEILADEDDTVDVGAVIARIGDANAAAAPAEEEAAPAEEEEPVKEEPKKEAAPEAPAATGAATDVEMPELGESVTEGTITQWLKAVGDTVEVDEPLLEVSTDKVDTEIPSPVAGTIVEILADEDDTVDVGAVIARIGDANAAAAPAEEEAAPAEEEEPVKEEPKKEEPKKEEPKKEAATTPAAASATVSASGDNVPYVTPLVRKLAEKHGVDLNTVTGTGIGGRIRKQDVLAAANGEAAPAEAAAPVSAWSTKSVDPEKAKLRGTTQKVNRIREITAMKTVEALQISAQLTQLHEVDMTRVAELRKKNKPAFIEKHGVNLTYLPFFVKAVVEALVSHPNVNASFNAKTKEMTYHSSVNLSIAVDTPAGLLTPVIHDAQDLSIPEIAKAIVDLADRSRNNKLKPNDLSGGTFTITNIGSEGALSDTPILVPPQAGILGTGAIVKRPVVITEDGIDSIAIRQMVFLPLTYDHQVVDGADAGRFLTTIKDRLETANFEGDLQL
[3]
  stoichiometry N: 3
